T1: Act1 SEFIR (mouse, UniProt Q8N7N6 391-537)
T1 sequence: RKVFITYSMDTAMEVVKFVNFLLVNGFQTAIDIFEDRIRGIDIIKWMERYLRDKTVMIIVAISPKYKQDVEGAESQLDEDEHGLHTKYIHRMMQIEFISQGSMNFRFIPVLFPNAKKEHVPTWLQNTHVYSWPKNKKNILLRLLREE


Legend:
Act1 SEFIR [1] = biological target: T1, Act1 SEFIR; experiment: EMSA
Act1 SEFIR [2] = biological target: T1, Act1 SEFIR; experiment: EMSA; remark: listed apart in the source
Act1 SEFIR [3] = biological target: T1, Act1 SEFIR; experiment: competition
Act1 SEFIR [4] = biological target: T1, Act1 SEFIR; experiment: competition; remark: listed apart in the source

Binder | binding result (Act1 SEFIR [1]) | also measured
CCUUGGACAUUUUGUGUCUAGUUGGUAAAACAUAAUGCCCUUUUACA (ssRNA) [SBE mutant C] | no binding | 
CCUUGGACAUUUUGUGUCUAGUUGGUAGGGCAUAAUGGGGUUUUACA (ssRNA) [Stem-loop C CCC to GGG] | no binding | 
CCUUGGACAUUUUGUGUCUAGUUGGUACCCCAUAAUGGGGUUUUACA (structured_RNA) [SBE stem swap] |  | binding result (Act1 SEFIR [2]): binds
Cxcl1 220-II (structured_RNA) RNA: GUUGGUAGGGCAUAAUGCCCUUUUACAUUCUUUAACCCUGUUUCUCCUGGUCUCGUCUCGCUCGGGACAGAGACGUUCAAAGGACUGUUACAAAUGAAGUAAAAAUAAAAG | binds | 
CCUUGGACAUUUUGUGUCUAGUUGGUAGGGCAUAAUGCCCUUUUACA (structured_RNA, 2'-O-methyl on the first three residues at 5' and 3' ends (as ordered)) [SBE WT aptamer (competitor)] |  | binding result (Act1 SEFIR [3]): binds
CCUUGGACAUUUUGUGUCUAGUUGGUAAAACAUAAUGCCCUUUUACA (ssRNA, 2'-O-methyl on the first three residues at 5' and 3' ends (as ordered)) [SBE mutant C aptamer (competitor)] |  | binding result (Act1 SEFIR [4]): no binding

Source: PMC6082628
